Experimental data taken from patent US20130330346A1 (Novartis, published 2013).
Positions count from the first letter of the chain named. Where two headings read alike, the source gives them in different places. Blank lines part the entries; values can stand above or below the binder they belong to. Ends that are not written are not given here.

What was measured:
[1] = biological target: T1, Human CXCR2 (human, UniProt P25025 1-360); assay: FACS, periplasmic extract vs FMAT Blue Gro-α
T1 construct: Some cell lines carry an N-terminal 3xHA tag; also called hCXCR2; huCXCR2
T1 sequence: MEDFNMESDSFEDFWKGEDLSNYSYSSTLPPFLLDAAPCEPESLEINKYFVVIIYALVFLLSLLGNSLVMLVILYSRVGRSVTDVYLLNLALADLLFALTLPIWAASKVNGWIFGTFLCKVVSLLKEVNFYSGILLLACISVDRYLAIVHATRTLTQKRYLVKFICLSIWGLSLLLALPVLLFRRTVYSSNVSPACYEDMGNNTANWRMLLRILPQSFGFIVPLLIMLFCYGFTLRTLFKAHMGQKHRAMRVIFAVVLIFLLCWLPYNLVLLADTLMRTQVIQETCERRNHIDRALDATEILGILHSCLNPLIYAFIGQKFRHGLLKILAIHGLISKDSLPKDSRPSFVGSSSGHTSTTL
Method: Periplasmic extracts (as described above) were analyzed on FACS for competition with Gro-α in binding to human CXCR2. 2×10⁵ cells were incubated with a ½ dilution of periplasmic extracts in FACS buffer (PBS+10% fetal bovine serum (Sigma, F7524)) for 30 minutes at 4° C. Then, an equal volume of 6 nM of FMAT Blue-labeled human Gro-α in FACS buffer was added and incubation was continued for another 30 minutes at 4° C. in the dark. Cells were then washed three times in FACS buffer and finally resuspended in FACS buffer. Dead cells were stained with propidium iodide (Sigma, P4170). Samples were then analyzed on a FACSarray (BD Biosciences).

[2] = biological target: T1, Human CXCR2; assay: cell-based or functional assay
[3] = biological target: T2, Cynomolgus CXCR2 (cynomolgus, UniProt Q28519 3-353 (rhesus entry)); assay: cell-based or functional assay
T2 chain: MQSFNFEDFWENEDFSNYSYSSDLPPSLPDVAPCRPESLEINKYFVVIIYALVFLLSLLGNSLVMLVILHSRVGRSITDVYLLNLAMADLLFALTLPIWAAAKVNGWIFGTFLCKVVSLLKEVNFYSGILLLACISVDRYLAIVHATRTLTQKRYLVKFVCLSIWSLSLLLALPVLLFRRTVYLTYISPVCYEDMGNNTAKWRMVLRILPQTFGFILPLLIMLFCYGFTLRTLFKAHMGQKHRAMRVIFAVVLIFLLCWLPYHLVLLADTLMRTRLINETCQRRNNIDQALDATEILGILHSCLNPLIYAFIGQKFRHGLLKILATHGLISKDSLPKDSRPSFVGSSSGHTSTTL

[4] = biological target: T1, Human CXCR2; assay: FACS competition vs 3 nM FMAT-Blue Gro-α
Method: (§1) Purified monovalent anti-CXCR2Nanobodies were titrated against 3 nM FMAT-Blue-labeled Gro-α in the FACS ligand competition assay on human and cynomolgus CXCR2 (Table 10). On human CXCR2, blocking potencies range between double digit nM and sub-nM whereas on cynomolgus CXCR2, they range between single and double digit nM.

[5] = biological target: T2, Cynomolgus CXCR2; assay: FACS competition vs 3 nM FMAT-Blue Gro-α
Method: as §1

[6] = biological target: T1, Human CXCR2; assay: cell-based or functional assay; remark: listed apart in the source
[7] = biological target: T2, Cynomolgus CXCR2; assay: cell-based or functional assay
[8] = biological target: T1, Human CXCR2; assay: FACS hGro-α competition
[9] = biological target: T2, Cynomolgus CXCR2; assay: FACS hGro-α competition
[10] = biological target: T1, Human CXCR2; assay: cell-based or functional assay; remark: listed apart in the source
[11] = biological target: T2, Cynomolgus CXCR2; assay: cell-based or functional assay
[12] = biological target: T3, Human 1to19 peptide (human); assay: ELISA, periplasmic extract on biotinylated peptide
T3 construct: First 19 N-terminal amino acids of human CXCR2, captured on neutravidin; also called human CXCR2 1 to19 peptide; 1-19 Nter peptide
T3 peptide: MEDFNMESDSFEDFWKGED-biotin
Method: In another setup, periplasmic extracts were analyzed for binding to human 1 to 19 peptide by ELISA. MaxiSorb plates (Nunc, 430341) were coated for two hours with neutravidin followed by one hour blocking (PBS, 1% casein). Then 100 nM biotinylated human 1 to 19 peptide was added to these plates for one hour (PBS, 0.1% casein, 0.05% tween20) followed by one hour incubation with 10-fold dilutions of periplasmic extracts. Unbound periplasmic extracts were washed away (PBS supplemented with 0.05% tween20) and bound Nanobodies were detected using mouse anti-myc (Roche, 11667149001) followed by rabbit anti-mouse-HRP conjugate (Dakocytomation, P0260). Table 8 summarizes the ratios of the binding signals of anti-CXCR2Nanobodies over an irrelevant control Nanobody.

[13] = biological target: T1, Human CXCR2; assay: cell-based or functional assay; remark: listed apart in the source
[14] = biological target: T1, Human CXCR2; assay: FACS hGro-α competition; remark: listed apart in the source
[15] = biological target: T2, Cynomolgus CXCR2; assay: FACS hGro-α competition
[16] = biological target: T1, Human CXCR2; assay: cell-based or functional assay; remark: listed apart in the source
[17] = biological target: T2, Cynomolgus CXCR2; assay: cell-based or functional assay
[18] = biological target: T1, Human CXCR2; assay: FACS hGro-α competition; remark: listed apart in the source
[19] = biological target: T2, Cynomolgus CXCR2; assay: FACS hGro-α competition
[20] = biological target: T1, Human CXCR2; assay: cell-based or functional assay; remark: listed apart in the source
[21] = biological target: T2, Cynomolgus CXCR2; assay: cell-based or functional assay

FACS Gro-α competition (% inhibition) [1]: 86.8%
Human WBSC IC50 (rhGROα) [2]: 6.6 nM
Cynomologus WBSC IC50 (rhGROα) [3]: > 100 nM
% inhibition of max [4]: 96.4%
IC50 [4]: 6.95 nM
% inhibition of max [5]: 91%
IC50 [5]: 14.8 nM
FLIPR hGro-α IC50 [6]: 66 nM
FLIPR hGro-α IC50 [7]: 92 nM
IC50 [8]: 2.8 nM
IC50 [9]: 7.1 nM
FLIPR % inhibition max [10]: 100%
FLIPR IC50 (GRO-α induced calcium release) [10]: 1.91 nM
[35S]GTPγS % inhibition max (GRO-α) [10]: 100%
[35S]GTPγS IC50 (GRO-α) [10]: 53.2 nM
FLIPR % inhibition max [11]: 100%
FLIPR IC50 (GRO-α induced calcium release) [11]: 37.2 nM
ratio of binding signal relative to blank control [12]: 0.5 ratio
B1: 163D2 (VHH)
VHH: EVQLVESGGGLVQAGGSLRLSCAASGRTFSDYAMGWFRQAPGKEREFVAAITWNGGRVFYTASVKGRFTISRDNAKNTMYLQMNSLKPEDTAVYYCAADKDRRTDYLGHPVAYWGQGTQVTVSS
notes: Tested as periplasmic extract (pAX50) and as purified His6-tagged protein (pAX100); also called 163D02; not shown: C-terminal c-myc tag and His6 tag coded by the vector

FLIPR hGro-α IC50 [6]: 73 nM
FLIPR hGro-α IC50 [7]: 85 nM
IC50 [8]: 2 nM
IC50 [9]: 4.8 nM
B2: CXCR20086 (VHH)
VHH: B1 VHH with V5L, A14P, A75S, M79L, K87R, Q119L

FACS Gro-α competition (% inhibition) [1]: 46.7%
Human Chemotaxis IC50 (GROα) [2]: 14 nM
Human WBSC IC50 (rhGROα) [2]: 4.9 nM
Cynomologus WBSC IC50 (rhGROα) [3]: > 100 nM
% inhibition of max [4]: 61.1%
IC50 [4]: 0.309 nM
% inhibition of max [5]: 82.6%
IC50 [5]: 4.41 nM
IC50 (M) at 5 nM GROα (inhibition of GRO-α, FIG. 2) [13]: 1.64e-09 M
IC50 (M) at 15 nM GROα (inhibition of GRO-α, FIG. 2) [13]: 2.04e-09 M
IC50 (M) at 45 nM GROα (inhibition of GRO-α, FIG. 2) [13]: 3.26e-09 M
IC50 (M) at 150 nM GROα (inhibition of GRO-α, FIG. 2) [13]: 4.6e-09 M
IC50 [14]: 0.55 nM
IC50 [15]: 6.1 nM
FLIPR % inhibition max [10]: 100%
FLIPR IC50 (GRO-α induced calcium release) [10]: 21.9 nM
[35S]GTPγS % inhibition max (GRO-α) [10]: 66%
[35S]GTPγS IC50 (GRO-α) [10]: 12.5 nM
FLIPR % inhibition max [11]: 100%
FLIPR IC50 (GRO-α induced calcium release) [11]: 753 nM
ratio of binding signal relative to blank control [12]: 39.5 ratio
FLIPR hGro-α IC50 [16]: 15 nM
FLIPR hGro-α IC50 [17]: 1.1 µM
B3: 127D1 (VHH)
VHH: EVQLVESGGGLVQAGESLRLSCAASGSTFDFKVMGWYRQPPGKQREGVAAIRLSGNMHYAESVKGRFTISKANAKNTVYLQMNSLRPEDTAVYYCKVNIRGQDYWGQGTQVTVSS
notes: Tested as periplasmic extract (pAX50) and as purified His6-tagged protein (pAX100); also called 127D01; not shown: C-terminal c-myc tag and His6 tag coded by the vector

IC50 [18]: 1.3 nM
IC50 [19]: 35 nM
FACS Gro-α competition (% inhibition) [1]: 38.1%
Human Chemotaxis IC50 (GROα) [2]: 212 nM
Human WBSC IC50 (rhGROα) [2]: 29.5 nM
Cynomologus WBSC IC50 (rhGROα) [3]: > 100 nM
% inhibition of max [4]: 42.7%
IC50 [4]: 2.07 nM
% inhibition of max [5]: 64%
IC50 [5]: 31.6 nM
FLIPR hGro-α IC50 [20]: 650 nM
FLIPR hGro-α IC50 [21]: 24 µM
FLIPR % inhibition max [10]: 100%
FLIPR IC50 (GRO-α induced calcium release) [10]: 441 nM
[35S]GTPγS % inhibition max (GRO-α) [10]: 71.3%
[35S]GTPγS IC50 (GRO-α) [10]: 103 nM
FLIPR % inhibition max [11]: 100%
FLIPR IC50 (GRO-α induced calcium release) [11]: 3850 nM
ratio of binding signal relative to blank control [12]: 58.6 ratio
B4: 2B2 (VHH)
VHH: EVQLVESGGELVQPGGSLRLSCAASGSILTINAMGWYRQAPGKQRELVVRRTRGGSTTYQDSVKGRFTISADIAKKTMYLQMNSLKPEDTAVYYCMLDDRGGVYWGQGTQVTVSS
notes: Tested as periplasmic extract (pAX50) and as purified His6-tagged protein (pAX100); also called 002B02; not shown: C-terminal c-myc tag and His6 tag coded by the vector
